This test has as its target T1, 14-3-3 υ protein, recombinant (A. thaliana, UniProt P42645 1-268).
T1 construct: 14-3-3 υ, A. thaliana, AT5G16050; construct and tags not described
T1 sequence (looked up): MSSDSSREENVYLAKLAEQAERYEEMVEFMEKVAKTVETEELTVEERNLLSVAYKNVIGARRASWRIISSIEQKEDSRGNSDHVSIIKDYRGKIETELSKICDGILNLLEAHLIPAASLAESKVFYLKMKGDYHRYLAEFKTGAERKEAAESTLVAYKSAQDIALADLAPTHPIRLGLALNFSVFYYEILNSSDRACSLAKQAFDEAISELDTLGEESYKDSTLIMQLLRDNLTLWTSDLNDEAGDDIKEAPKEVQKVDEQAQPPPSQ
Kind of test: far-Western, overlay or dot blot; dilution series of recombinant 14-3-3 υ spotted on nitrocellulose; incubated with PRX-IIE or its phospho-mimicry variants in TBS with either 1 mM DTT or 100 µM H2O2 overnight at 4 °C; detected with anti-PRX-IIE antibody; spots quantified with ImageJ. As to conditions: both partners purified.

B1: Peroxiredoxin IIE (PRX-IIE), wild type, His6-tagged recombinant (enzyme, A. thaliana, UniProt Q949U7 71-234, looked up)
chain: ASISVGDKLPDSTLSYLDPSTGDVKTVTVSSLTAGKKTILFAVPGAFTPTCSQKHVPGFVSKAGELRSKGIDVIACISVNDAFVMEAWRKDLGINDEVMLLSDGNGEFTGKLGVELDLRDKPVGLGVRSRRYAILADDGVVKVLNLEEGGAFTNSSAEDMLKAL
notes: Peroxiredoxin IIE, A. thaliana, AT3G52960, cloned into pET28a (NdeI/BamHI); also called PRX-IIE WT; WT PRX-IIE; source: E. coli BL21 (DE3)pLysS, purified (Ni-NTA, dialysis)
Consider B1, for which the “fold improvement of binding under oxidizing conditions (100 µM H2O2) against the other conditions” value was found to be 2.5 fold.

Source of the values: PMC7909837, “Function and Regulation of Chloroplast Peroxiredoxin IIE” (Antioxidants, 2021).
